Consider 5 sequences from the supplement of paper PMC11316812.

± gives the standard deviation of the averaged measurements.

Data set [1] relates to MCF7. Kind of data set: percentage of EdU-negative (G0-arrested) nuclei per well, 72 h; higher = more G0 arrest. The note with it: reference: sequence is the full UniProt precursor, the tested protein was the secreted form or ectodomain.
Data set [2] concerns hTERT-HMEC. Described as above. The note with it: reference: sequence is the full UniProt precursor, the tested protein was the secreted form or ectodomain.
The mark [3] stands for this setting: protein concentration 0.0128571 µM.
Setting [4] is: protein concentration 0.128571 µM.
[5] abbreviates: protein concentration 0.0214286 µM.
[6] abbreviates: protein concentration 0.0225 µM.
Where [7] appears, read: protein concentration 0.214286 µM.
[8] abbreviates: protein concentration 0.0257143 µM.
The mark [9] stands for this setting: protein concentration 0.257143 µM.
Setting [10] is: protein concentration 0.03125 µM.
[11] abbreviates: protein concentration 0.3125 µM.
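Further: secreted proteins added to cultured cells, EdU pulse at the end, nuclei found by Hoechst imaging, EdU status from nuclear versus surrounding ring intensity ratio, PBS as neutral control.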

Consider “MGPRARPALLLLMLLQTAVLQGRLLRSHSLHYLFMGASEQDLGLSLFEALGYVDDQLFVFYDHESRRVEPRTPWVSSRISSQMWLQLSQSLKGWDHMFTVDFWTIMENHNHSKESHTLQVILGCEMQEDNSTEGYWKYGYDGQDHLEFCPDTLDWRAAEPRAWPTKLEWERHKIRARQNRAYLERDCPAQLQQLLELGRGVLDQQVPPLVKVTHHVTSSVTTLRCRALNYYPQNITMKWLKDKQPMDAKEFEPKDVLPNGDGTYQGWITLAVPPGEEQRYTCQVEHPGLDQPLIVIWEPSPSGTLVIGVISGIAVFVVILFIGILFIILRKRQGSRGAMGHYVLAERE”, for which the “percentage of EdU-negative” value in data set [1] (setting [3]) stood at 25.8 ± 0.42%; in data set [1] (setting [4]), 29 ± 1.8%; in data set [2] (setting [3]) it was 5.75 ± 0.3%; in data set [2] (setting [4]) it was 7.25 ± 1.1%.
In the case of “MGPWSRSLSALLLLLQVSSWLCQEPEPCHPGFDAESYTFTVPRRHLERGRVLGRVNFEDCTGRQRTAYFSLDTRFKVGTDGVITVKRPLRFHNPQIHFLVYAWDSTYRKFSTKVTLNTVGHHHRPPPHQASVSGIQAELLTFPNSSPGLRRQKRDWVIPPISCPENEKGPFPKNLVQIKSNKDKEGKVFYSITGQGADTPPVGVFIIERETGWLKVTEPLDRERIATYTLFSHAVSSNGNAVEDPMEILITVTDQNDNKPEFTQEVFKGSVMEGALPGTSVMEVTATDADDDVNTYNAAIAYTILSQDPELPDKNMFTINRNTGVISVVTTGLDRESFPTYTLVVQAADLQGEGLSTTATAVITVTDTNDNPPIFNPTTYKGQVPENEANVVITTLKVTDADAPNTPAWEAVYTILNDDGGQFVVTTNPVNNDGILKTAKGLDFEAKQQYILHVAVTNVVPFEVSLTTSTATVTVDVLDVNEAPIFVPPEKRVEVSEDFGVGQEITSYTAQEPDTFMEQKITYRIWRDTANWLEINPDTGAISTRAELDREDFEHVKNSTYTALIIATDNGSPVATGTGTLLLILSDVNDNAPIPEPRTIFFCERNPKPQVINIIDADLPPNTSPFTAELTHGASANWTIQYNDPTQESIILKPKMALEVGDYKINLKLMDNQNKDQVTTLEVSVCDCEGAAGVCRKAQPVEAGLQIPAILGILGGILALLILILLLLLFLRRRAVVKEPLLPPEDDTRDNVYYYDEEGGGEEDQDFDLSQLHRGLDARPEVTRNDVAPTLMSVPRYLPRPANPDEIGNFIDENLKAADTDPTAPPYDSLLVFDYEGSGSEAASLSSLNSSESDKDQDYDYLNEWGNRFKKLADMYGGGEDD”, the “percentage of EdU-negative” value in data set [1] (setting [5]) was found to be 23.8 ± 3.6%; in data set [1] (setting [6]), 26.2 ± 3.6%; in data set [1] (setting [7]), 26.8 ± 1.9%; in data set [1] (protein concentration 0.225 µM), 28.91 ± 0.16%; in data set [2] (setting [5]) it was 5.09 ± 0.58%; in data set [2] (setting [6]) it was 4.93 ± 0.37%. In addition, the “percentage of EdU-negative” value was 6.74 ± 0.63% in data set [2] (setting [7]) and 23.4 ± 1.1% in data set [2] (protein concentration 0.225 µM).
For “MGRDLRPGSRVLLLLLLLLLVYLTQPGNGNEGSVTGSCYCGKRISSDSPPSVQFMNRLRKHLRAYHRCLYYTRFQLLSWSVCGGNKDPWVQELMSCLDLKECGHAYSGIVAHQKHLLPTSPPISQASEGASSDIHTPAQMLLSTLQSTQRPTLPVGSLSSDKELTRPNETTIHTAGHSLAAGPEAGENQKQPEKNAGPTARTSATVPVLCLLAIIFILTAALSYVLCKRRRGQSPQSSPDLPVHYIPVAPDSNT [Q9H2A7]”, the “percentage of EdU-negative” value stood at 25.9 ± 0.7% in data set [1] (setting [8]), 25.9 ± 2.8% in data set [1] (setting [9]), 4.5 ± 0.52% in data set [2] (setting [8]) and 4.18 ± 0.16% in data set [2] (setting [9]).
In the case of “MGRGWGFLFGLLGAVWLLSSGHGEEQPPETAAQRCFCQVSGYLDDCTCDVETIDRFNNYRLFPRLQKLLESDYFRYYKVNLKRPCPFWNDISQCGRRDCAVKPCQSDEVPDGIKSASYKYSEEANNLIEECEQAERLGAVDESLSEETQKAVLQWTKHDDSSDNFCEADDIQSPEAEYVDLLLNPERYTGYKGPDAWKIWNVIYEENCFKPQTIKRPLNPLASGQGTSEENTFYSWLEGLCVEKRAFYRLISGLHASINVHLSARYLLQETWLEKKWGHNITEFQQRFDGILTEGEGPRRLKNLYFLYLIELRALSKVLPFFERPDFQLFTGNKIQDEENKMLLLEILHEIKSFPLHFDENSFFAGDKKEAHKLKEDFRLHFRNISRIMDCVGCFKCRLWGKLQTQGLGTALKILFSEKLIANMPESGPSYEFHLTRQEIVSLFNAFGRISTSVKELENFRNLLQNIH [Q96HE7]”, the “percentage of EdU-negative” value in data set [1] (setting [10]) is 26.32 ± 0.034%; in data set [1] (setting [11]) it was 25.7 ± 0.52%; in data set [2] (setting [10]), 6.24 ± 0.39%; in data set [2] (setting [11]), 6.47 ± 0.033%.
With “MGRPRPRAAKTWMFLLLLGGAWAGHSRAQEDKVLGGHECQPHSQPWQAALFQGQQLLCGGVLVGGNWVLTAAHCKKPKYTVRLGDHSLQNKDGPEQEIPVVQSIPHPCYNSSDVEDHNHDLMLLQLRDQASLGSKVKPISLADHCTQPGQKCTVSGWGTVTSPRENFPDTLNCAEVKIFPQKKCEDAYPGQITDGMVCAGSSKGADTCQGDSGGPLVCDGALQGITSWGSDPCGRSDKPGVYTNICRYLDWIKKIIGSKG”, the “percentage of EdU-negative” value in data set [1] (setting [6]) was found to be 26.4 ± 2.5%; in data set [1] (protein concentration 0.225 µM) it was 24.6 ± 0.69%; in data set [2] (setting [6]), 4.99 ± 0.28%; in data set [2] (protein concentration 0.225 µM), 5.28 ± 0.5%.
